# Assay: soluble on expression in E. coli; label from the status in PepcDB or PDB records
row,Sequence,soluble on expression in E. coli
1,MPPQKYHCNVCAQDITRSIHIRCVECVDFDLCIPCFTSGASLGTHHPSHPYRIIETNSYPIFDENWGADEELLLIDACETLGLGNWADIADYVGNARTKEECRDHYLKTYIESDCYPLASVELPGPVDRIAFAARKRARIEAFQPPPIIPQKPLASTPQCHEIQGYMPGRLEFDQEYMNEAELPIKDMNFDDDLHESAKHEMQLKLTMLNIYNSRLTRRAVRKQTIFNHNLLDYRRLQANEKRMSKEERNLLNKTKAFARLLTGPDYQKFVNSYHEQITLKKQISDLQEWRQMGLTTLEQGHKYERDKTQKFLLSKASASYDKQLRHVKSFNQTTSAPFQVRDIQKIVPRKPATPTMFSASADRQLLSEDEQALCSKLQIFPKPFLALKFALISASLTSKKPFQKTDAVNLFKHLDANKVEQVYDFFHNARWIGAPT,soluble
2,MAPPKDPPVLRNLQATADLLDALQNDPSLLNDEEFIKRLSILRQKHEETTNFLAKKLGAPPLPTMMTSSEITQHRSSYKVTKSSSCHFQDEASPSDYQMPRHLDLKPRSSEVRVPVRAAPEPPREQSWSQTEYATLAHNQSHEALYEDPRHQVHATSSHQNPRHQSSRHHNIESTAPSQVSVTSSVQSVAALSGQNPRQQVHATPSHQIPRHQSSRTHQNSRQQVPSATSSTLQNPRHRTSSASRHHSTRNATSATVRQILANASTRHLSSAPHIATSVAMPSGLLLSSSNTKHVASSKSENPQFATSSHVVEESFLEDGMSTTREVPTIRDEVVAGDLKLSKNRSKSMHQLSKYTPQVTVPKPFQLSLRKSTGNTYAKKFMSGLITEKQKLEEDAKKALENTKFRAKPVPKSTYQPTNTFATEQKYVEAMRKKVAAKARRKFEVQNEMVRSKSEGNLASIKPLGYVPPSTYISPIPVKPNARSRSATMRATILIQEATTPKGIKSHRAQSNLTHHLRHGRCTMDASAVSLHRRTSPPDFEKIHAKITDNFRNTNSKPSTVPIPFKFASRSKSATSRHGNCQEQAPKPFKKSTENLPKTSKNRVPSTHATQLREELNRAKIELKKSEKSGKNGNFWAEDNKQRISSFLGARSKTEEDIAMRTKQKLQQQQETTQEYMRQLAEMKQRVLNGPLIMEKQTALAQEHRLKRKFEERMKSAKGRGIERVQSQEKQQSIGRRSSEVSGSGTFVVDKGYEESFESEDKSEKSGSSTPSESGSGSESENESRSSRSSKPKSSKSTSSKSSSSRSTSSSSEA,not soluble
3,MGSDKIHHHHHHMTGKTVDLKLPAKLDGLFKPCRYKVMYGGRGGGKSHGAASALLALGAQRPLRILCAREIQKSMRDSVHRLLKDKVAQLGLGHFYEITDFEIRGANGTLFVFSGLQSHTVDSIKSFEGIDIVWVEEGHGVSKKSWDVLTPTIRKEGSEIWITLNPDMETDETYRRFIAMPSEDTWLCEINWRDNPWFPEALNRERLKAQRSMNKEDYGNIWEGRPRMVSEGAVYRHEIQDAFHSGRVTLVPYDSSLPVHTVWDLGWNDAMTIGLVQRDLTSVRIIGYIEDTHRTLDWYVAELEKLPYRWGTDFLPHDGRTRNFQTGKSTMEILTGLGRKSVFVQNATGIEEGIRAARMLFPKVYFDKDKTARLLECLKRYGRQIHAKTGVAMGPLHDEYSHGADMFRYLAQAVDLMDTGSNTGYTETPVSDWRLY,not soluble
4,MMGRGKLILIEGLDRTGKTTQCNILYKKLQPNCKLLKFPERSTRIGGLINEYLTDDSFQLSDQAIHLLFSANRWEIVDKIKKDLLEGKNIVMDRYVYSGVAYSAAKGTNGMDLDWCLQPDVGLLKPDLTLFLSTQDVDNNAEKSGFGDERYETVKFQEKVKQTFMKLLDKEIRKGDESITIVDVTNKGIQEVEALIWQIVEPVLSTHIDHDKFSFF,soluble
5,MKDQGRSPRKRTGGRRRPNHKKKKHELGKDTVETQVGEQRLKTVDSRGNTQKVRAVKTDVASIADGAETIEATIENVVENPSNPNYARRNIITKGAILETSEGQARVTSRPGQHGQVNAVLVEAAALEHHHHHH,soluble
6,MSLSKSDDGDSEESFSISVQSGFEAMSQELCIVMCLKDLTSIVDIKTSSRPAMIGSLTDGSTETFWESGDEDKNKTKNITINCVKGINARYVSVHVDNSRDLGNKVTSMTFLTGKAVEELCRIKQVDLDSRHIGWVTSELPGGDNQIIKIELKGPENTLRVRQVKVLGWKDGESTKIAGQISASVAQQRSCEAETLRVFRLITSQVFGKLISGDAEEGHHHHHH,soluble
7,GSHGMRVIIAGFGRFGQITGRLLLSSGVKMVVLDHDPDHIETLRKFGMKVFYGDATRMDLLESAGAAKAEVLINAIDDPQTNLQLTEMVKEHFPHLQIIARARDVDHYIRLRQAGVEKPERETFEGALKTGRLALESLGLGPYEARERADVFRRFNIQMVEEMAMVENDTKARAAVYKRTSAMLSEIITEDREHLSLIQRHGWQGTEEGKHTGNMADEPETKPSSTSGGLVPRGSSGMILIIYAHPYPHHSHANKRMLEQARTLEGVEIRSLYQLYPDFNIDIAAEQEALSRADLIVWQHPMQWYSIPPLLKLWIDKVFSHGWAYGHGGTALHGKHLLWAVTTGGGESHFEIGAHPGFDVLSQPLQATAIYCGLNWLPPFAMHCTFICDDETLEGQARHYKQRLLEWQEAHHG,soluble
8,LLGNTIHVPCQPCRHGHGAPSRGLRGRPADRWPVARATPTLHVCPQNQGVGLDFVRKPEYGRLRWPAYPAGTNNDRLISMRDGGIVALPQLTDEQRAAALEKAAAARRARAELKDRLKRGGTNLTQVLKDAESDEVLGKMKVSALLEALPKVGKVKAQEIMTELEIAPTRRLRGLGDRQRKALLEKFGSA,soluble
9,MKQLSVSLAILCAVATSEAFAADELQQRAQGLFKPVPAKAPTLKGNPASPVKVELGKMLYFDPRLSASHLISCNTCHNVGLGGGDLQATSTGHGWQKGPRNAPTVLNSVFNTAQFWDGRAKDLAEQAKGPVQASVEMNNTPDQVVKTLNSIPDYVALFKKAFPGEKDPVTFDNMAKAIEVFEATLITPDSPFDQYLKGKKKALDGKQTAGLKLFLDKGCVACHGGLNLGGTGYFPFGVVEKPAENILPLGDKGRFAVTNTAKDEYVFRAPSLRNVAITYPYFHSGVVWSLKEAVAVMGSAQFGIKLSDDESEAIAAFLGSLTGKQPKVVYPIMPASTDATPRPRL,soluble
10,MGSDKIHHHHHHMAEQENSKDLISVLWSGADVLRSKMDANEYKNYLLGIVFYKYLSDSFLIRVYDLINDEKPESLKVALEAYKNELKGEYANDLLDELKQDRKYVIEPELTYTCFAEDARNNCFNREQLQKAFNNIEQSGELFVDLFSDIDLYSSRLGAGDQKQSDTIAELIKVIDQADLLNSDGEILGDAYEYLIGQFASETGKKAGEFYTPQAVSKILTRIAITGQENVKGLSIYDPCMGSGSLLLNAKRYYKGDTNYIKYYGQELNMSTYNLARMNMFLHDVAAENQNLHHGDTLDADWPTGEETDFHMVLMNPPYSAKWSAASGFLQDERFSEYGVLAPKSKADYAFLLHGLYHLKSNGTMAIVLPHGVLFRGAAEGKIREKLLRSGNIYAVIGLPANLFYNTSIPTCIVVLKKHRDGRDVLFIDASKKFIKGKKQNEMSDEHIDEVMDLYNRRETVDKESYLASFDDIEKNDFNLNIPRYVDNFEKEEEVDINGLLEDMQKTDDEIGKVEGEFVNLLKDLTSSDENIMASLNRYIDMIEG,not soluble
11,MDINKMTYAVQSALQQAVELSQQHKLQNIEIEAILSAALNESESLYKSILERANIEVDQLNKAYEDKLNTYASVEGDNIQYGQYISQQANQLITKAESYMKEYEDEYISMEHILRSAMDIDQTTKHYINNKVEVIKEIIKKVRGGNHVTSQNPEVNYEALAKYGRDLVEEVRQGKMDPVIGRDEEIRNTIRILSRKTKNNPVLIGEPGVGKTAIVEGLAQRIVKKDVPESLLDKTVFELDLSALVAGAKYRGEFEERLKAVLKEVKESDGRIILFIDEIHMLVGAGKTDGAMDAGNMLKPMLARGELHCIGATTLNEYREYIEKDSALERRFQKVAVSEPDVEDTISILRGLKERYEVYHGVRIQDRALVAAAELSDRYITDRFLPDKAIDLVDQACATIRTEMGSNPTELDQVNRRVMQLEIEESALKNESDNASKQRLQELQEELANEKEKQAALQSRVESEKEKIANLQEKRAQLDESRQALEDAQTNNNLEKAAELQYGTIPQLEKELRELEDNFQDEQGEDTDRMIREVVTDEEIGDIVSQWTGIPVSKLVETEREKLLHLSDILHKRVVGQDKAVDLVSDAVVRARAGIKDPNRPIGSFLFLGPTGVGKTELAKSLAASLFDSEKHMIRIDMSEYMEKHAVSRLIGAPPGYIGHDEGGQLTEAVRRNPYSVILLDEVEKAHTDVFNVLLQILDEGRLTDSKGRSVDFKNTIIIMTSNIGSQVLLENVKETGEITESTEKAVMTSLNAYFKPEILNRMDDIVLFKPLSIDDMSMIVDKILTQLNIRLLEQRISIEVSDDAKAWLGQEAYEPQYGARPLKRFVQRQIETPLARMMIKEGFPEGTTIKVNLNSDNNLTFNVEKIHE,not soluble
12,AIAVLLRHPVLGTEQLPDSWPSHWNTAIVGIPGYSRQRSDLSVVKDVSSPCLPLVAMPSCDDGLASLWNDVSRAV,soluble
13,MKSVFVESTIFEKYRDEYLSDEEYRLFQAELMLNPKLGDVIQGTGGLRKIRVASKGKGKRGGSRIIYYFLDEKRRFYLLTIYGKNEMSDLNANQRKQLMAFMEAWRNEQS,not soluble
14,MTKNPRNNKPKKILDSSYKSKTIWQNYIDALFETFPQLEISEVWAKWDGGNVTKDGGDAKLTANIRTGEHFLKAREAHIVDPNSDIYNTILYPKTGADLPCFGMDLMKFSDKKVIIVFDFQHPREKYLFSVDGLPEDDGKYRFFEMGNHFSKNIFVRYCKPDEVDQYLDTFKLYLTKYKEMIDNNKPVGEDTTVYSDFDTYMTELDPVRGYMKNKFGEGRSEAFVNDFLFSYK,soluble
15,MADETIAIVDADATAETRSLLSYLDGVRGEGILFGHQHTTSFGLTTGPTDGTTSDVKNVTGDFPAVFGWDTLIIEGNERPGLAENTRDENIALFADYIRKADAIGGVNTVSAHVENFVTGGSFYDTSGDTLRAVLPGGSHHAELVAYLDDIAELADASRRDDGTLIPIVFRPWHENAGSWFWWGAAYGSPGEYQELYRFTVEYLRDVKGVSNFLYAWGPGGGFGGNRDVYLRTYPGDAFVDVLGLDTYDSTGSDAFLAGLVADLRMIAEIADEKGKVSAFTEFGVSGGVGTNGSSPAQWFTKVLAAIKADPVASRNAYMETWRNADAGQHFVPVPGDALLEDFQAYAADPFTLFASEVTGAFDRTVAAAPAQPVVHIASPADGARVASAPTTVRVRVGGTDVQSVTVEVAQGGTVVDTLDLAYDGALWWTAPWSPTSAQLDNSTYTVTATATTAAGTLDVTNEVAAALEHHHHHH,soluble
16,PFMFRPRKQVFQTQGAAVSSMAQTLLPNDLASKAMGSAFTALLDANEDAQKAMKIIKTLSSLSDAWENVKETLNNPEFWKQLLSRCVQLIAGMTIAVMHPDPLTLLCLGTLTAAEITSQTSLCEEIAAKFKTIFITPPPRFPTISLFQQQSPLKQVNDIFSLAKNLDWAVKTVEKVVDWFGTWIVQEEKEQTLDQLLQRFPEHAKRISDLRNGMAAYVECKESFDFFEKLYNQAVKEKRTGIAAVCEKFRQKHDHATARCEPVVIVLRGDAGQGKSLSSQVIAQAVSKTIFGRQSVYSLPPDSDFFDGYENQFAAIMDDLGQNPDGSDFTTFCQMVSTTNFLPNMASLERKGTPFTSQLVVATTNLPEFRPVTIAHYPAVERRITFDYSVSAGPVCSKTEAGYKVLDVERAFRPTGEAPLPCFQNNCLFLEKAGLQFRDNRTKEIISLVDVIERAVARIERKKKVLTTVQTLVAQ,not soluble

# Reference: the DeepSol protein solubility set
